We go through 8 sequences from the Immune Epitope Database (IEDB).

Bounds are passed on as bounds.

In test [1] the target is HLA-B*08:01. Kind of test: IEDB peptide-MHC binding, purified MHC/competitive/fluorescence; filed as Kd, often an IC50 or EC50 that approximates it; ≥ and ≤ were set here for values at or beyond the usual limits of such assays.
The target in test [2] is HLA-B*46:01. Put plainly: IEDB peptide-MHC binding, purified MHC/direct/fluorescence; filed as Kd, often an IC50 or EC50 that approximates it; ≥ and ≤ were set here for values at or beyond the usual limits of such assays.
Test [3] has as its target HLA-B*15:01. Described as above.
For test [4], the target named is HLA-B*27:05. The description is as above.
In test [5] the target is HLA-A*01:01. The test is described as above.
Test [6] deals with HLA-A*02:01. The description is as above.
Test [7] has as its target HLA-A*31:01. The test is described as above.
Test [8] deals with HLA-B*07:02. The test is described as above.
For test [9], the target named is HLA-A*11:01. Described as above.
Test [10] concerns the target HLA-A*03:01. The test is described as above.
Test [11] concerns the target HLA-B*08:02. The test is described as above.
The target of test [12] is HLA-A*24:02. The description is as above.
Test [13] has as its target HLA-B*08:01. Described as above.
Test [14] addresses HLA-A*69:01. Described as above.
Test [15] has as its target HLA-B*58:01. The test is described as above.
For test [16], the target named is HLA-B*39:01. Put plainly: IEDB peptide-MHC binding, purified MHC/competitive/fluorescence; filed as Kd, often an IC50 or EC50 that approximates it; ≥ and ≤ were set here for values at or beyond the usual limits of such assays.
In test [17] the target is HLA-B*44:02. Put plainly: IEDB peptide-MHC binding, purified MHC/direct/fluorescence; filed as Kd, often an IC50 or EC50 that approximates it; ≥ and ≤ were set here for values at or beyond the usual limits of such assays.
For test [18], the target named is HLA-C*05:01. Described as above. Conditions: source organism: Influenza A virus H3N2.
The target in test [19] is HLA-B*40:01. Described as above.
The target in test [20] is HLA-B*35:01. Put plainly: IEDB peptide-MHC binding, purified MHC/competitive/fluorescence; filed as Kd, often an IC50 or EC50 that approximates it; ≥ and ≤ were set here for values at or beyond the usual limits of such assays. The note with it: source organism: Yersinia pestis Nepal516.
Test [21] has as its target HLA-A*02:01. Described as above. The note with it: source organism: Yersinia pestis Nepal516.
The target in test [22] is HLA-C*12:03. Put plainly: IEDB peptide-MHC binding, purified MHC/direct/fluorescence; filed as Kd, often an IC50 or EC50 that approximates it; ≥ and ≤ were set here for values at or beyond the usual limits of such assays. The note with it: source organism: Yersinia pestis Nepal516.
In test [23] the target is HLA-C*03:03. The test is described as above. The note with it: source organism: Yersinia pestis Nepal516.
The target of test [24] is HLA-A*26:01. The description is as above.
In test [25] the target is HLA-B*18:01. Described as above.
The mark [26] stands for this setting: source organism: Influenza A virus (A/Duck/Shantou/2088/01(H9N2)).
[27] abbreviates: source organism: Influenza A virus (A/Puerto Rico/8/34/Mount Sinai(H1N1)).
Where [28] appears, read: source organism: Influenza A virus (A/Ck/HK/2133.1/2003(H5N1)).
Setting [29] is: source organism: Yersinia pestis Nepal516.
Where [30] appears, read: source organism: Giardia lamblia ATCC 50803.
Where [31] appears, read: source organism: Brucella abortus.
[32] abbreviates: source organism: Brucella suis 1330.
The mark [33] stands for this setting: source organism: Escherichia coli O157:H7.

A word on the Kd: it is the equilibrium constant for the complex coming apart. FDERRNRYL yielded a Kd in test [1] (source organism: Influenza A virus (A/parakeet/Narita/92A/98(H9N2))) of at least 20 µM.
Regarding EEMATKADY, the Kd in test [2] (setting [26]) is at least 20 µM; in test [3] (setting [27]), 1.46 µM; in test [4] (setting [26]) it was at least 20 µM; in test [5] (setting [26]), at least 20 µM; in [6] (setting [26]) it was at least 20 µM; in test [7] (setting [26]), at least 20 µM. Moreover, the Kd in test [8] (setting [26]), in test [9] (setting [26]), in [10] (setting [26]), in test [11] (source organism: Influenza A virus (A/Taiwan/2/2006(H1N1))), in test [12] (setting [26]) and in test [13] (setting [26]) was at least 20 µM throughout. In addition, the Kd in test [14] (setting [26]) and in test [15] (setting [26]) was at least 20 µM each time.
For the sequence EYIWRSLKI, the Kd in test [12] (source organism: Entamoeba histolytica) was at most 0.001 µM.
With SADPLASLL, the Kd in [16] (source organism: Influenza A virus H3N2) was 0.157 µM; in [3] (setting [28]) it was at least 20 µM; in [4] (setting [27]) it was 1.37 µM; in [17] (setting [28]), at least 20 µM; in test [6] (setting [28]), at least 20 µM; in test [7] (setting [28]), at least 20 µM. The Kd was at most 0.001 µM in test [18]; at least 20 µM in test [8] (setting [28]); at least 20 µM in [9] (setting [28]); 3.25 µM in [19] (setting [27]); at least 20 µM in test [11] (source organism: Influenza A virus(A/swine/Shandong/fNY/2003(H9N2))); at least 20 µM in [12] (setting [28]). The Kd in test [13] (setting [28]) and in test [15] (setting [28]) was at least 20 µM throughout.
Take MLMAASRAL: the Kd stood at 0.0471 µM in test [20]; 0.0012 µM in test [16] (setting [29]); 0.0011 µM in test [21]; 0.0396 µM in test [1] (setting [29]); 0.361 µM in test [22]; 0.002 µM in test [23].
As for SDRLHHDPL, the Kd in [2] (setting [30]), in test [24] (setting [30]), in test [3] (setting [30]), in [4] (setting [30]), in test [17] (setting [30]) and in test [5] (setting [30]) was at least 20 µM each time. For the same sequence, the Kd in test [6] (setting [30]) is at least 20 µM; in [7] (setting [30]) it was at least 20 µM; in [8] (setting [30]) it was at least 20 µM; in [9] (setting [30]), at least 20 µM; in test [19] (setting [30]), 0.28 µM; in test [10] (setting [30]) it was at least 20 µM. Besides, the Kd in test [11] (setting [30]), in test [12] (setting [30]), in [14] (setting [30]) and in [15] (setting [30]) was at least 20 µM throughout.
For the sequence LTDAFHGYH, the Kd in test [2] (setting [31]) is at least 20 µM; in test [24] (setting [32]) it was at least 20 µM; in test [3] (setting [31]), at least 20 µM; in test [4] (setting [31]) it was at least 20 µM; in test [17] (setting [31]) it was at least 20 µM; in test [5] (setting [31]), 0.0754 µM. The Kd in [6] (setting [31]), in test [8] (setting [31]), in test [25] (setting [31]), in test [19] (setting [31]), in [10] (setting [31]) and in [11] (setting [32]) was at least 20 µM each time. The Kd in test [12] (setting [31]), in test [13] (setting [32]) and in test [15] (setting [31]) was at least 20 µM in each case.
For LPPERRQPF, the Kd in test [2] (setting [33]), in [3] (setting [33]), in test [4] (setting [33]), in test [17] (setting [33]), in test [5] (setting [33]) and in test [6] (setting [33]) was at least 20 µM each time. Moreover, the Kd in [7] (setting [33]) was at least 20 µM; in test [8] (setting [33]), 0.376 µM; in [25] (setting [33]), at least 20 µM; in test [9] (setting [33]) it was at least 20 µM; in [19] (setting [33]), at least 20 µM; in test [10] (setting [33]), at least 20 µM. The Kd in test [12] (setting [33]), in [14] (setting [33]) and in test [15] (setting [33]) was at least 20 µM in each case.
